Laboratory results published in US20170260241A1.
pKd: −log10 of the molar value.

Biological target: recombinant TLR4 protein
Assay: ELISA: TLR4 coated on the plate, MD2 titrated from 133.3 to 0.065 nM, anti-MD2 detection, nonlinear regression

recombinant MD2 protein (ligand)
pKd: 7.74
